# From US20250043302A1, “MUTATED HYDROXYPHENYLPYRUVATE DIOXYGENASE POLYPEPTIDE, AND CODING GENE AND USE THEREOF” (BEIJING DABEINONG BIOTECHNOLOGY CO., LTD., priority 2021, published 2025)
# Experiments:
# Format in all cases: in vivo
# [1] = tested on: Arabidopsis thaliana T1 plants; assay: Topramezone tolerance of transgenic Arabidopsis thaliana T1 plants (spray, bleached leaf area grade, damage score); conditions: for Classification and statistics of the grade of pesticide damage Grade 0: number of plants at grade 0; for Classification and statistics of the grade of pesticide damage Grade 1: number of plants at grade 1; for Classification and statistics of the grade of pesticide damage Grade 2: number of plants at grade 2; for Classification and statistics of the grade of pesticide damage Grade 3: number of plants at grade 3; for Classification and statistics of the grade of pesticide damage: Grade 0 / Classification and statistics of the grade of pesticide damage: Grade 1 / Classification and statistics of the grade of pesticide damage: Grade 2 / Classification and statistics of the grade of pesticide damage: Grade 3: number of plants
# Outline: (§1)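 T1 transformants selected by glufosinate; 18-day-old plants, with empty-vector and wild-type controls, sprayed with topramezone (25–200 g ai/ha), isoxaflutole (35–280 g ai/ha) or mesotrione (52.5–420 g ai/ha), water as 0×. Bleached leaf area fraction scored at 7 DAT as grades 0–3.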
# [2] = tested on: Arabidopsis thaliana T1 plants; assay: Isoxaflutole tolerance of transgenic Arabidopsis thaliana T1 plants (spray, bleached leaf area grade, damage score); parameters: Scores (pesticide damage): scale not given here; conditions: for Classification and statistics of the grade of pesticide damage: Grade 0 (number of plants) / Classification and statistics of the grade of pesticide damage: Grade 1 (number of plants) / Classification and statistics of the grade of pesticide damage: Grade 2 (number of plants) / Classification and statistics of the grade of pesticide damage: Grade 3 (number of plants): 16 plants; for Classification and statistics of the grade of pesticide damage Grade 0 / Classification and statistics of the grade of pesticide damage Grade 1 / Classification and statistics of the grade of pesticide damage Grade 2 / Classification and statistics of the grade of pesticide damage Grade 3: number of plants in grade
# Outline: as §1
# [3] = tested on: Arabidopsis thaliana T1 plants; assay: Mesotrione tolerance of transgenic Arabidopsis thaliana T1 plants (spray, bleached leaf area grade, damage score); parameters: Scores: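 damage score 0-100 computed as Σ(N×S)/(T×M)×100 over grades 0-3 with higher meaning more damage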; conditions: for Grade 0 (classification and statistics of the grade of pesticide damage; number of plants) / Grade 1 (classification and statistics of the grade of pesticide damage; number of plants) / Grade 2 (classification and statistics of the grade of pesticide damage; number of plants) / Grade 3 (classification and statistics of the grade of pesticide damage; number of plants): 16 plants; for Classification and statistics of the grade of pesticide damage Grade 0 / Classification and statistics of the grade of pesticide damage Grade 1 / Classification and statistics of the grade of pesticide damage Grade 2 / Classification and statistics of the grade of pesticide damage Grade 3: number of plants in grade
# Outline: as §1
# [4] = Table 13, topramezone 25 g ai/ha (1×)
# [5] = Table 13, topramezone 100 g ai/ha (4×)
# [6] = topramezone 25 g ai/ha (1×), 7 DAT, Table 4
# [7] = topramezone 100 g ai/ha (4×), 7 DAT, Table 4
# [8] = isoxaflutole 35 g ai/ha (0.5x field concentration), spray, Arabidopsis thaliana T1 plants
# [9] = isoxaflutole 70 g ai/ha (1x field concentration), spray, Arabidopsis thaliana T1 plants
# [10] = mesotrione 52.5 g ai/ha, Arabidopsis thaliana T1 plants
# [11] = mesotrione 105 g ai/ha, Arabidopsis thaliana T1 plants
molecule,measurement,setting,value
"AtHPPD-02: nucleotide sequence encoding wild-type Arabidopsis thaliana HPPD; vector DBN11730 (nucleic acid, AtHPPD-02 Nucleotide Sequence, vector DBN11730) DNA: ATGGGACATCAGAATGCTGCTGTATCAGAAAATCAAAATCATGATGATGGAGCCGCCTCCTCACCAGGGTTTAAGTTGGTTGGGTTCTCCAAGTTTGTACGGAAGAACCCAAAATCCGACAAGTTCAAGGTTAAACGCTTCCACCACATTGAATTCTGGTGCGGCGACGCCACCAATGTTGCTCGGCGTTTTTCATGGGGTTTAGGCATGAGATTCTCAGCAAAGAGTGACCTGAGCACCGGCAACATGGTTCATGCTAGCTATCTCTTAACATCTGGAGATTTGAGGTTTCTTTTCACGGCGCCGTACTCACCATCACTCTCCGCCGGCGAGATCAAACCCACCACGACTGCAAGCATACCTTCATTTGATCATGGTAGTTGCAGATCCTTCTTCTCGTCGCACGGCCTAGGGGTGCGCGCGGTCGCCATCGAAGTTGAAGATGCAGAATCAGCGTTTAGTATCAGCGTGGCAAATGGAGCTATTCCTTCCTCCCCTCCAATTGTCCTCAATGAGGCTGTAACTATTGCCGAGGTGAAGTTGTATGGAGATGTTGTGCTGAGATATGTTTCTTACAAGGCAGAGGACACTGAGAAATCTGAATTTTTGCCTGGTTTTGAAAGGGTCGAGGATGCTTCAAGTTTTCCTCTTGATTACGGCATACGACGGTTGGATCACGCGGTTGGAAATGTACCAGAACTTGGGCCGGCGCTCACTTATGTGGCTGGTTTCACTGGATTCCATCAATTTGCTGAGTTCACAGCTGATGATGTTGGGACTGCTGAAAGTGGGTTGAACTCTGCAGTCCTCGCCTCTAATGATGAAATGGTGCTCCTCCCGATCAACGAGCCTGTGCATGGCACCAAAAGGAAATCACAAATACAGACATATCTTGAGCACAATGAAGGTGCAGGGCTTCAACATCTTGCACTGATGTCTGAAGACATTTTCCGTACGCTGAGAGAGATGAGGAAGAGAAGTAGTATTGGTGGATTTGACTTCATGCCTTCTCCCCCACCAACTTACTACCAGAACTTGAAGAAGAGGGTTGGTGATGTGCTATCTGATGACCAGATCAAGGAGTGTGAAGAATTGGGCATTCTTGTTGATCGGGACGACCAAGGAACATTACTGCAGATATTTACAAAACCACTTGGTGACCGCCCCACTATTTTTATTGAGATCATACAAAGAGTCGGCTGCATGATGAAGGATGAGGAAGGAAAAGCATATCAATCTGGTGGTTGTGGCGGCTTTGGGAAAGGAAACTTCTCTGAGCTGTTCAAATCCATCGAGGAGTATGAGAAGACCTTGGAGGCCAAGCAGCTCGTGGGTTGA",Resistance evaluation,[1]; [4],Non-resistant
same,Classification and statistics of the grade of pesticide damage Grade 0,[1]; [4],0
same,Classification and statistics of the grade of pesticide damage Grade 1,[1]; [4],0
same,Classification and statistics of the grade of pesticide damage Grade 2,[1]; [4],0
same,Classification and statistics of the grade of pesticide damage Grade 3,[1]; [4],16
same,Scores,"[1]; Table 13, topramezone 25 g ai/ha (1×), pesticide damage score",100
same,Resistance evaluation,[1]; [5],Non-resistant
same,Classification and statistics of the grade of pesticide damage Grade 0,[1]; [5],0
same,Classification and statistics of the grade of pesticide damage Grade 1,[1]; [5],0
same,Classification and statistics of the grade of pesticide damage Grade 2,[1]; [5],0
same,Classification and statistics of the grade of pesticide damage Grade 3,[1]; [5],16
same,Scores,"[1]; Table 13, topramezone 100 g ai/ha (4×), pesticide damage score",100
same,Classification and statistics of the grade of pesticide damage: Grade 0,[1]; [6],0
same,Classification and statistics of the grade of pesticide damage: Grade 1,[1]; [6],0
same,Classification and statistics of the grade of pesticide damage: Grade 2,[1]; [6],0
same,Classification and statistics of the grade of pesticide damage: Grade 3,[1]; [6],16
same,Classification and statistics of the grade of pesticide damage: Grade 0,[1]; [7],0
same,Classification and statistics of the grade of pesticide damage: Grade 1,[1]; [7],0
same,Classification and statistics of the grade of pesticide damage: Grade 2,[1]; [7],0
same,Classification and statistics of the grade of pesticide damage: Grade 3,[1]; [7],16
same,Scores,"[1]; pesticide damage score 0-100, topramezone 25 g ai/ha (1×), 7 DAT, Table 4",100
same,Scores,"[1]; pesticide damage score 0-100, topramezone 100 g ai/ha (4×), 7 DAT, Table 4",100
same,Resistance evaluation,[1]; [6],non-resistant (non-resistant plants (scores 68-100))
same,Resistance evaluation,[1]; [7],non-resistant (non-resistant plants (scores 68-100))
same,Resistance evaluation,[2]; isoxaflutole 35 g ai/ha,Non-resistant
same,Scores,[2]; isoxaflutole 35 g ai/ha,100
same,Resistance evaluation,[2]; [8],Non-resistant
same,Scores (pesticide damage),[2]; [8],100
same,Classification and statistics of the grade of pesticide damage: Grade 0 (number of plants),[2]; [8],0
same,Classification and statistics of the grade of pesticide damage: Grade 1 (number of plants),[2]; [8],0
same,Classification and statistics of the grade of pesticide damage: Grade 2 (number of plants),[2]; [8],0
same,Classification and statistics of the grade of pesticide damage: Grade 3 (number of plants),[2]; [8],16
same,Classification and statistics of the grade of pesticide damage Grade 0,[2]; isoxaflutole 35 g ai/ha,0
same,Classification and statistics of the grade of pesticide damage Grade 1,[2]; isoxaflutole 35 g ai/ha,0
same,Classification and statistics of the grade of pesticide damage Grade 2,[2]; isoxaflutole 35 g ai/ha,0
same,Classification and statistics of the grade of pesticide damage Grade 3,[2]; isoxaflutole 35 g ai/ha,16
same,Resistance evaluation,[2]; isoxaflutole 70 g ai/ha,Non-resistant
same,Scores,[2]; isoxaflutole 70 g ai/ha,100
same,Resistance evaluation,[2]; [9],Non-resistant
same,Scores (pesticide damage),[2]; [9],100
same,Classification and statistics of the grade of pesticide damage: Grade 0 (number of plants),[2]; [9],0
same,Classification and statistics of the grade of pesticide damage: Grade 1 (number of plants),[2]; [9],0
same,Classification and statistics of the grade of pesticide damage: Grade 2 (number of plants),[2]; [9],0
same,Classification and statistics of the grade of pesticide damage: Grade 3 (number of plants),[2]; [9],16
same,Classification and statistics of the grade of pesticide damage Grade 0,[2]; isoxaflutole 70 g ai/ha,0
same,Classification and statistics of the grade of pesticide damage Grade 1,[2]; isoxaflutole 70 g ai/ha,0
same,Classification and statistics of the grade of pesticide damage Grade 2,[2]; isoxaflutole 70 g ai/ha,0
same,Classification and statistics of the grade of pesticide damage Grade 3,[2]; isoxaflutole 70 g ai/ha,16
same,Resistance evaluation,[3]; mesotrione 52.5 g ai/ha,Non-resistant
same,Scores,[3]; mesotrione 52.5 g ai/ha,100
same,Resistance evaluation,[3]; [10],Non-resistant
same,Scores,[3]; [10],100
same,Grade 0 (classification and statistics of the grade of pesticide damage; number of plants),[3]; [10],0
same,Grade 1 (classification and statistics of the grade of pesticide damage; number of plants),[3]; [10],0
same,Grade 2 (classification and statistics of the grade of pesticide damage; number of plants),[3]; [10],0
same,Grade 3 (classification and statistics of the grade of pesticide damage; number of plants),[3]; [10],16
same,Classification and statistics of the grade of pesticide damage Grade 0,[3]; mesotrione 52.5 g ai/ha,0
same,Classification and statistics of the grade of pesticide damage Grade 1,[3]; mesotrione 52.5 g ai/ha,0
same,Classification and statistics of the grade of pesticide damage Grade 2,[3]; mesotrione 52.5 g ai/ha,0
same,Classification and statistics of the grade of pesticide damage Grade 3,[3]; mesotrione 52.5 g ai/ha,16
same,Resistance evaluation,[3]; mesotrione 105 g ai/ha,Non-resistant
same,Scores,[3]; mesotrione 105 g ai/ha,100
same,Resistance evaluation,[3]; [11],Non-resistant
same,Scores,[3]; [11],100
same,Grade 0 (classification and statistics of the grade of pesticide damage; number of plants),[3]; [11],0
same,Grade 1 (classification and statistics of the grade of pesticide damage; number of plants),[3]; [11],0
same,Grade 2 (classification and statistics of the grade of pesticide damage; number of plants),[3]; [11],0
same,Grade 3 (classification and statistics of the grade of pesticide damage; number of plants),[3]; [11],16
same,Classification and statistics of the grade of pesticide damage Grade 0,[3]; mesotrione 105 g ai/ha,0
same,Classification and statistics of the grade of pesticide damage Grade 1,[3]; mesotrione 105 g ai/ha,0
same,Classification and statistics of the grade of pesticide damage Grade 2,[3]; mesotrione 105 g ai/ha,0
same,Classification and statistics of the grade of pesticide damage Grade 3,[3]; mesotrione 105 g ai/ha,16
